Results taken from PMC5040590, “A model for regulation by SynGAP-α1 of binding of synaptic proteins to PDZ-domain 'Slots' in the postsynaptic density” (eLife, 2016).

Molecular target: CaM-Sepharose 4B (calmodulin on Sepharose resin) (UniProt P62157 1-149)
Assay: pull-down; equilibrium binding of purified synGAP (1-500 nM, 300 µl) to 50 µl CaM-Sepharose 4B, 60 min; 50 mM Tris pH 7.5, 200 mM NaCl, 5 mM TCEP, 2 mM CaCl2; bound protein by quantitative immunoblot; hyperbolic fit
Settings: both partners purified

B1: sr-synGAP (residues 103-725) (domain or fragment)
chain: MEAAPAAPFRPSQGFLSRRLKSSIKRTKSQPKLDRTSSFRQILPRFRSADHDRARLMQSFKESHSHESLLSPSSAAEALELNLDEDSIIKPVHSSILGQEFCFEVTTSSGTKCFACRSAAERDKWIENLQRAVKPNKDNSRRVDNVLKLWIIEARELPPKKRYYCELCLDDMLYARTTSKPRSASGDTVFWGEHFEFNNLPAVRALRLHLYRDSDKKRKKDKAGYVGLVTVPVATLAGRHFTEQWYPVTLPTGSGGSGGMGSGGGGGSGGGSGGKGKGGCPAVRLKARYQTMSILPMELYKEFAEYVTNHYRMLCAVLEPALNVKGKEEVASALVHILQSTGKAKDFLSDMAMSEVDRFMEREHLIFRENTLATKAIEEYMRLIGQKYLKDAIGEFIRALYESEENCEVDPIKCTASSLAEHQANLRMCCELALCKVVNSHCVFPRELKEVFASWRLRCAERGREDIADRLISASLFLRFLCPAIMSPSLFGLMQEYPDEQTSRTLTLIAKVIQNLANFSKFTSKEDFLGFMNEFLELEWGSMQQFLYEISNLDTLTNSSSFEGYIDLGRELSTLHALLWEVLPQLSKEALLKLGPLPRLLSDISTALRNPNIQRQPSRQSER
Kd: 210 ± 30 nM
